Measured values taken from patent publication US20030119772A1.

Biological target: ZEB expressed in NIH 3T3 cells in the p21 promoter luciferase reporter assay
Assay: cell-based or functional assay

Row | p21-promoter-driven luciferase reporter in NIH 3T3 cells, relative light units | p21-promoter-driven luciferase reporter (p53-mediated transactivation) in NIH 3T3 cells | Substance
1 | 2 fold |  | 53BP1 co-expressed in NIH 3T3 cells in the p21 promoter luciferase reporter assay
2 |  | 4 fold | CtBP1
